{"source": "patent US20210261643A1", "about": "“INHIBITORS OF P-TEFB MEDIATED TRANSCRIPTION” (The Regents of the University of California, priority 2018, published 2021)", "molecules": {"B1": {"name": "HT1 (protein)", "chain": "KKKHRRRPSKKKRHWKPYYKLTWEEKKKFDEKQSLRASRIRAEMFAKGQPVAPYNTTQFLMDDHDQEEPDLVDMEPVDPYLEPWKHPGSQPRTACNNCYCKKCCFHCYACFTRKGLGISYG", "modifications": "left off: small tags and cut ends"}}, "key": {"HIV TAR RNA": {"tested_on": "HIV TAR RNA", "test": "RNA immunoprecipitation and RT-qPCR with TAR-specific primers in 293T cells", "format": "binding", "description": "FIGS. 3A, 3B, 3C and 3D. HT1 prevents Tat from bringing active P-TEFb to TAR. FIG. 3A: HT1 inhibits the kinase activity of P-TEFb subunit CDK9. m:HT1 and/or f:Tat were transiently expressed in 293T cells. Cell lysates were used for IP using anti-Myc Ab (lanes 2-4), or control IgG (lane 1). Immunoprecipitates were incubated with ATP and recombinant GST-CTD proteins for in vitro kinase assay. Six replicate experiments were performed, and mean relative kinase activities are shown in the bar graph to the right. FIG. 3B: HT1 binds to TAR. m:HT1 or m:Tat (or empty vector, EV, as a control) was transiently co-expressed with TAR RNA-expressing pU16TAR in 293T cells. Cell lysates were used for IP using anti-Myc Ab or control IgG. RNA was purified from the immunoprecipitates and submitted to RT-qPCR using TAR-specific primers. Relative TAR enrichment was calculated as qPCR count using anti-Myc Ab minus using IgG, and normalized to EV. Error bars represent standard deviation from triplicate qPCR assays. […] Error bars represent standard deviation from triplicate qPCR assays. FIG. 3D: HT1 competes with Tat for TAR binding. m:HT1 and/or f:Tat were transiently co-expressed with TAR RNA-expressing pU16TAR in 293T cells. Cell lysates were used for IP using anti-Myc Ab or control IgG. RNA was purified from the immunoprecipitates and submitted to RT-qPCR using TAR-specific primers (upper panel). Relative TAR enrichment was calculated as qPCR count using anti-Myc Ab minus using IgG, and normalized to EV. Error bars represent standard deviation from triplicate qPCR assays.\nFinally, since HEXIM1 ARM resembles the TAR-binding domain from Tat, we investigated whether HT1 could bind to HIV TAR. m:HT1 or m:Tat was co-expressed in 293T cells with TAR RNA, expressed under RNA Polymerase III dependent H1 promoter, and immunoprecipitated using anti-Myc Ab or IgG as a control. TAR RNAs co-immunoprecipitated with HT1 or Tat were quantified by RT-qPCR analysis. […] To test whether HT1 affects Tat-TAR interactions, increasing amounts of m:HT1 were also co-expressed with a fixed amount of f:Tat and TAR. […] As expected, HT1 also bound to endogenous 7SK snRNA."}, "[1]": {"tested_on": "host cell gene expression in 293T cells", "test": "mRNA-seq analysis in 293T cells", "format": "cell-based", "excerpt": "The specificity of HT1 was further investigated by mRNA-seq analysis in 293T cells. Only 48 genes were differentially expressed upon ectopic expression of HT1, while knocking out CycT1 as a control impacted 1673 genes."}, "[2]": {"tested_on": "HIV reactivation in 2D10 cells", "test": "HIV reactivation in 2D10 latent infection model, FACS of GFP positive cells", "format": "cell-based", "details": "D-HT cells, 24 hrs", "excerpt": "FIGS. 4A and 4B. Stable expression of HT1 inhibits HIV reactivation. FIG. 4A: Stable expression of HT1 inhibits HIV reactivation from 2D10 cells. 3f:HT1 was stably expressed in 2D10 cells (D-HT cells). […] Error bars represent standard deviation from triplicate FACS analysis. FIG. 4B: Stable expression of HT1 inhibits HIV reactivation from J-Lat 9.2 cells. 3f:HT1 was stably expressed in J-Lat 9.2 cells (L-HT cells). […] Error bars represent standard deviation from triplicate FACS analysis.\nTo test the effect of HT1 on HIV-1 in T-lymphocyte derived cells, 3f:HT1 was stably expressed in HIV latent infection models 2D10 and J-Lat 9.2 cells (D-HT and L-HT cells respectively), which carry replication-defective, GFP-flagged HIV proviruses. In both 2D10 and J-Lat 9.2, the basal HIV transcription level is undetectable, as measured through GFP expression. Compounds such as the PKC agonist PMA, the histone deacetylase inhibitor SAHA or the BET bromodomain inhibitor JQ1 reactivate HIV transcription and increase GFP-positive cells detected by FACS analysis. 2D10 cells are more sensitive to HIV reactivation than J-Lat 9.2 cells, though they harbor a mutation in the N-terminal sequence of Tat (H13L). 2D10 and D-HT cells were incubated for 24 hrs with PMA (10 nM), SAHA (5 μM) or JQ1 (1 μM) and GFP positive cells were detected by FACS analysis. PMA, SAHA and JQ1 reactivated HIV from 65%, 71% and 58% less D-HT cells than from control 2D10 cells, respectively. Due to the limited HIV reactivation by SAHA and JQ1 in J-Lat 9.2 cells, we only treated them with PMA (100 nM), which induced a 12% increase in GFP expression."}, "HIV-1 NL43": {"tested_on": "HIV-1 NL43", "test": "Spreading infection with HIV-1 NL43, Gag p24 ELISA in supernatants", "format": "cell-based", "details": "4 dpi", "excerpt": "(§1) FIGS. 5A, 5B, 5C, and 5D. Stable expression of HT1 inhibits HIV replication. FIG. 5A. Stable expression of HT1 inhibits HIV-1 replication in C-HT cells. 1E+06 HT1-expressing CEM-HT cells and e control CEM cells were challenged by HIV-1 NL43 infection. FIG. 5B. Stable expression of HT1 inhibits HIV-1 replication in MO-HT cells. 1E+06 HT1-expressing MOLT4-HT cells, and control MOLT4 cells were challenged by HIV-1 NL43 infection. FIG. 5C. Stable expression of HT1 inhibits HIV-1 replication in MT-HT cells. 1E+06 HT1-expressing MT4-HT cells, and control MT4 cells were challenged by HIV-1 NL43 infection. In each of FIGS. 5A, 5B, and 5C, virus production was assessed by Gag p24 ELISA in supernatants when cells were passaged at days 0, 2 and 4, and plotted. Error bars represent standard deviation from triplicate experiments. FIG. 5D: Stable expression of HT1 doesn't inhibit early steps of HIV-1 infection in C-HT, MO-HT, and MT-HT cells. Single-round infection assays were performed in the same conditions as in FIG. 5A-C above, but using replication-defective HXB2 Env-pseudotyped HIV-1 NL43ΔenvLuc. The relative amount of HIV DNA integrated in the cells' genomic DNA was assessed after 24 h by qPCR. Error bars represent standard deviation from triplicate experiments.\n(§2) On 2 dpi, virus production was detected from CEM, MOLT4 and MT4 cells and reached around 20 (CEM, MT4) to 110 (MOLT4) ng/mL p24 concentration in the supernatant on 4 dpi."}, "[3]": {"tested_on": "early steps of HIV infection (HIV-1 NL43ΔenvLuc)", "test": "Single-round infection with Env-pseudotyped replication-defective HIV, proviral DNA by qPCR", "format": "cell-based", "details": "C-HT, MO-HT, MT-HT cells", "excerpt": "as §1, with “qPCR. […]” for “qPCR. Error bars represent standard deviation from triplicate experiments.”\nas §2"}}}
{"molecule": "B1", "values": [{"measurement": "immunoprecipitation of TAR RNA (in words)", "setting": "HIV TAR RNA; 293T cells, anti-Myc Ab, RT-qPCR", "result": "immunoprecipitated TAR"}, {"measurement": "amounts of TAR RNA co-immunoprecipitated with f:Tat", "setting": "HIV TAR RNA; fixed amount of f:Tat and TAR, increasing m:HT1, anti-Flag Ab", "result": "decreased progressively"}, {"measurement": "TAR bound, normalized by protein levels of m:HT1 and m:Tat", "setting": "HIV TAR RNA; normalized to protein in input lysate", "result": "at least as much TAR as m:Tat"}, {"measurement": "genes differentially expressed upon ectopic expression", "setting": "[1]", "result": 48, "unit": "genes"}, {"measurement": "7SK RNA fold-change", "setting": "[1]; padj=9.6E−06", "result": 1.1}, {"measurement": "fewer cells with reactivated HIV (GFP positive) than control 2D10 cells", "setting": "[2]; JQ1 1 μM", "result": 58, "unit": "%"}, {"measurement": "fewer cells with reactivated HIV (GFP positive) than control 2D10 cells", "setting": "[2]; PMA 10 nM", "result": 65, "unit": "%"}, {"measurement": "fewer cells with reactivated HIV (GFP positive) than control 2D10 cells", "setting": "[2]; SAHA 5 μM", "result": 71, "unit": "%"}, {"measurement": "p24 concentration in supernatant", "setting": "HIV-1 NL43; C-HT cells", "result": 5.1}, {"measurement": "p24 concentration in supernatant", "setting": "HIV-1 NL43; MO-HT cells", "result": 12, "unit": "ng/mL"}, {"measurement": "p24 concentration in supernatant", "setting": "HIV-1 NL43; MT-HT cells", "result": 1.3, "unit": "ng/mL"}, {"measurement": "early steps of HIV infection (proviral DNA by qPCR)", "setting": "[3]", "result": "not affected"}]}
